Data: patent US20060121047A1, “Use of hmgb polypetides for increasing immune responses” (priority 2002, published 2006)
Marks after values point to notes of the source that are not given here.

How the values were obtained:
[1] = tested on: RAW 264.7 cells; assay: IL-6 release from RAW 264.7 cells (ELISA); assay type: cell-based, murine; settings: B box 0-10 μg/ml, 8 hours (FIG. 2C)
Method: Murine macrophage-like RAW 264.7 cells (American Type Culture Collection, Rockville, Md.) were cultured in RPMI 1640 medium (Life Technologies, Grand Island N.Y.) supplemented with 10% fetal bovine serum (Gemini, Catabasas, Calif.), penicillin and streptomycin (Life Technologies) and were used at 90% confluence in serum-free Opti-MEM I medium (Life Technologies, Grand Island, N.Y.). […] Polymyxin B was not used in experiments of synthetic peptide studies.
To further examine the effect of HMGB1 B box on cytokine production, varying amounts of HMGB1 B box were evaluated for the effects on TNF, IL-1B, and IL-6 production in murine macrophage-like RAW 264.7 cells. Conditioned media were harvested and measured for TNF, IL-1β and IL-6 levels. TNF levels were measured as described herein, and IL-1β and IL-6 levels were measured using the mouse IL-1β and IL-6 enzyme-linked immunosorbent assay (ELISA) kits (R&D System Inc., Minneapolis, 1) and N>5 for all experiments.

[2] = tested on: RAW 264.7 cells; assay: TNF mRNA expression in RAW 264.7 cells (RNase protection assay); assay type: cell-based, murine; settings: 10 μg/ml
Method: The kinetics of B box-induced TNF release was also examined. TNF release and TNF mRNA expression was measured in RAW 264.7 cells induced by B box polypeptide or GST tag polypeptide only used as a control (vector) (10 μg/ml) for 0 to 48 hours. Supernatants were analyzed for TNF protein levels by an L929 cytotoxicity assay (N=3-5) as described herein. For mRNA measurement, cells were plated in 100 mm plate and treated in Opti-MEM I medium containing B box polypeptide or the vector alone for 0, 4, 8, or 24 hours, as indicated in FIG. 2D. The vector only sample was assayed at the 4 hour time point. Cells were scraped off the plate and total RNA was isolated by RNAzol B method in accordance with the manufacturer's instructions (Tel-Test “B”, Inc., Friendswood, Tex.). TNF (287 bp) was measured by RNase protection assay (Ambion, Austin, Tex.). Equal loading and the integrity of RNA was verified by ethidium bromide staining of the RNA sample on agarose-formaldehyde gel. […] TNF mRNA expression was maximal at 4 hours and decreased at 8 and 24 hours. […] A similar study was carried out measuring TNF protein released from RAW 264.7 cells 0, 4, 8, 24, 32 or 48 hours after administration of B box or vector only (GST tag), using the L929 cytotoxicity assay described herein. […] Data are representative of three separate experiments.

[3] = tested on: D-galactosamine-sensitized Balb/c mice; assay: Toxicity (survival) in D-galactosamine-sensitized Balb/c mice; assay type: in vivo; settings: for Alive/total: survival monitored up to 7 days
Description: Male 6-8 week old Balb/c and C3H/HeJ mice were purchased from Harlen Sprague-Dawley (Indianapolis, Ind.) and were allowed to acclimate for 7 days before use in experiments. All animals were housed in the North Shore University Hospital Animal Facility under standard temperature, and a light and dark cycle.
The D-galactosamine-sensitized model has been described previously (Galanos et al., Proc Natl. Acad. Sci. USA 76: 5939-5943, 1979; and Lehmann et al., J. Exp. Med. 165: 657663, 1997). Mice were injected intraperitoneally with 20 mg D-galactosamine-HCL (Sigma)/mouse (in 200 μl PBS) and 0.1 or 1 mg of either HMGB1 B box or vector protein (in 200 μl PBS).
To investigate whether the HMGB1 B box has cytokine activity in vivo, we administered HMGB1 B box protein to unanesthetized Balb/c mice sensitized with D-galactosamine (D-gal), a model that is widely used to study cytokine toxicity (Galanos et al., supra). Briefly, mice (20-25 gram, male, Harlan Sprague-Dawley, Indianapolis, IN) were intraperitoneally injected with D-gal (20 mg) (Sigma) and B box (0.1 mg/ml/mouse or 1 mg/ml/mouse) or GST tag (vector; 0.1 mg/ml/mouse or 1 mg/ml/mouse), as indicated in Table 1. […]

[4] = tested on: D-galactosamine-sensitized Balb/c mice; assay: Serum cytokine levels in D-galactosamine-sensitized Balb/c mice; assay type: in vivo; settings: 1 mg/mouse i.p. plus D-gal, 7 hours
Method: To further assess the lethality of the HMGB1 B box protein in vivo the HMGB1 B box was again administered to D-galactosamine-sensitized Balb/c mice. Mice (3 per group) received D-gal (20 mg/mouse) plus B box or vector (1 mg/mouse) intraperitoneally for 7 hours and were then sacrificed by decapitation. Blood was collected, and organs (liver, heart, kidney and lung) were harvested and fixed in 10% formaldehyde. Tissue sections were prepared with hematoxylin and eosin staining for histological evaluation (Criterion Inc., Vancouver, Canada). […] In FIG. 4J, hepatocyte dropouts are seen surrounded by accumulated polymorphonuclear leukocytes. The arrows in FIG. 4J point to the sites of polymorphonuclear accumulation (dotted) or apoptotic hepatocytes (solid).

B1: B box: Recombinant GST-system human HMGB1 mutant containing only the B box, 74 amino acids, SEQ ID NO: 20 (protein, listed as Homo sapiens)
chain: FKDPNAPKRLPSAFFLFCSEYRPKIKGEHPGLSIGDVAKKLGEMWNNTAADDKQPYEKKAAKLKEKYEKDIAAY
modifications: GST system
- IL-6 release, dose dependence [1]: increased with increased amounts of B box
- IL-6 release, dose dependence ([1]; listed as HMGB1 B box): dose-dependently stimulated release
- time of maximal TNF mRNA expression [2]: 4 h
- TNF mRNA expression ([2]; 0, 4, 8 or 24 hours (vector at 4 hours) (FIG. 2D)): increased significantly
- Alive/total ([3]; 0.1 mg/mouse i.p. with D-gal 20 mg): 6/6
- Alive/total ([3]; 1 mg/mouse i.p. with D-gal 20 mg): 2/8*
- lethality ([3]; 0.1 or 1 mg/mouse i.p.): lethal to D-galactosamine-sensitized mice in a dose-dependent manner
- time of death ([3]; instances in which death occurred): ≤ 12 h
- late deaths among survivors ([3]; survivors followed for 2 weeks): no later deaths from B box toxicity were observed
- serum levels of IL-1β [4]: 15+3 pg/ml
- serum levels of IL-6 [4]: 315+93 pg/ml
